{"source": "the DeepSol protein solubility set"}
{"assay": "soluble on expression in E. coli; label from the status in PepcDB or PDB records"}
{"sequence": "MSIPVPMETGANSEAWKKANEALMKIQGGMSKGLNASNGNNNTGQNSWMNNSFSFPNPPSAYGQFGGGFHPSTWGSGPIVPPPPPQQSAVNATAQAAYNQASFNYAPPPPPQNWNNGYGRGRGGGANNWNQQQRPQQFQPFALNRKNNSSAFPHLTSTFVPQGGGPQPLMGVGRGRGVPAPGPAKPPPPSAQRYMERAFEAANTVEDRQKTQEYLQKRLFPMLNAGNAHMVNWDNEPLPHEKNYELAPAWTPANKLPHQANGFNRKKSPSRRRSDEMSNSGAAGGGGQMKRARRDSDGASSDSDNSDPLEKMHFSSMNQKKTKAQKKAEKAARKAAKKLQKQQTPQKVKNAWKVAGGDTEARREDRARRFAETLYNVSKPSVSVPQHYFRRGQVIRGTCQNIEKSFFRLTAAPNPSEVRPLEVLRLSLQNVRDKYRARAEYSYLTSQMRSIRQDLTVQVIRNEFTVEVYEINARISLENADREEFNKCQSQLKLLYSEIENCANQAEFVAYRLLYYIAMDNQIDINALLRELTPELKENDCVEFALNVRKAVTMNNYVKFFRLFKNAPRMCPYIMDLFVDRERKKALGIITKAFRPTITYKLIAEFLSMKESTLIDWLEEELKWTDVEVGGTFDPKIPRNI", "soluble on expression in E. coli": "not soluble"}
{"sequence": "MSIRDWPEAERPREKLLEQGAAALSDAELLAIFLRTGVTGCSAVELSRRLLSEFGGLRALLEADLASFCGHLGLGVAKYAQLQAVLEMGRRHLAERLRRDSILESPQAVRDYLKARLRHEQHEVFACLFLDTRHRVLSFEVLFQGSIDGASVYPRQVVKRTLAHNAAALILTHNHPSGDARPSLADRQLTARLKEALALIDVRVLDHFIIGDGEPLSLAEYGWL", "soluble on expression in E. coli": "not soluble"}
{"sequence": "MSISGLFILDLKGNVVISRNYRGDVDMSCIEKFMPLLVEKEDEGSASPVLVHQGISYTYIKYMNVYLVTISKKNTNVILVLSALYKIVEVFCEYFKTLEEEAVRDNFVIIYELFDEMLDFGYPQTTESKILQEFITQQGNRLETVRPPMAVTNAVSWRSEGIKYRKNEVFLDVIESVNMLANAQGTVLRSEIVGSIRFRVVLSGMPELRLGLNDKVFFQQSGASSRRGNSGKGVELEDIKFHQCVRLSRFDSERTISFIPPDGEFELMSYRLTTQVKPLIWVEAAVERHAHSRVEYMVKAKSQFKRQSVANHVEVIIPVPSDVSAPKFKTGAGTAKYVPELNAIVWSIRSFPGGREYIMRSSFMLPSIGSEELEGRPPINVKFEIPYYTTSGLQVRYLKIIEKSGYQALPWVRYVTQNGDYQMRMT", "soluble on expression in E. coli": "not soluble"}
{"sequence": "MSKETGKMAEEPPGSSSSAKPVTSSKKPPPNDVTTTTNTTKTTNSNQQEDMYLNGNNPYYGGFYANNRYLFPSTSSQATCIGTSSEDSPPPPPPSANGSIHRKHHQNANHHQNSRHAISDTVAVAGDDLSNVPAAVVIQLEKANRTIASQTLEIERLKSYQNQNLETHLLKKQIHDLEKEVRSGRSRFLEQQELLAEMSREMDILLREKLEMQRNSQELEKKYKKAKFASRELAKILENDLCGTPTTSNLKNFESDDEFFEEKSLFEKSRALSRQQIPNDLLEKTRKIDFSEAKNAKNQDLIDKLIDENENLQISLNREQKMTSSLQDDLEKSRRMVIDRDEHIEELKMKLGKAETKASQCESDLTQTSSDLAMERLRCEVLTGELHEIDGIFRNTQSTIQAYADDNDRLEDQCRQAQRTILTLNSKL", "soluble on expression in E. coli": "not soluble"}
{"sequence": "MSKIARKDVERLIELVGGPDNIASVSHCLTRLRFVLNDTDKADTKQLEALRMVKGCFTNAGQFQVVIGTEVDEVYKVLIELSGKSEASKDESKNAARQNMNIVERGISHLAE", "soluble on expression in E. coli": "not soluble"}
{"sequence": "MSKIIGIDLGTTNSCVAVLEGGEVKVIPNPEGNRTTPSVVAFKNGERLVGEVAKRQAITNPNTIISIKRHMGTDYKVEIEGKQYTPQEISAIILQYLKSYAEDYLGEPVTRAVITVPAYFNDAQRQATKDAGRIAGLEVERIINEPTAAALAYGLDKEEDQTILVYDLGGGTFDVSILELGDGVFEVKATAGDNHLGGDDFDQVIIDYLVNQFKQEHGIDLSKDKMALQRLKDAAEKAKKELSGVTQTQISLPFISANENGPLHLEMTLTRAKFEELSAHLVERTMGPVRQALQDAGLTPADIDKVILVGGSTRIPAVQEAIKRELGKEPHKGVNPDEVVAIGAAIQGGVIAGEVKDVVLLDVTPLSLGIETMGGVFTKLIERNTTIPTSKSQVFTTAADNQTTVDIHVLQGERPMAADNKSLGRFQLTGIPPAPRGVPQIEVTFDIDANGIVHVRAKDLGTNKEQSITIKSSSGLSEEEIQRMIKEAEENAEADRKRKEAAELRNEAD", "soluble on expression in E. coli": "soluble"}
{"sequence": "MSKLYLMSLGCNKNLVDSEIMLGHLSAYELCDEPSKADVLIVNTCGFIDSAKKESINAILDLHEQRKKDSLLVVTGCLMQRYREELMKELPEVDLFTGVGDYERIDEMILKKTNLFSNSTYLQSENSKRIITGSNSHAFIKIAEGCNQKCSFCAIPSFKGKLKSREISSIIAELKDLVARGYKDFSFIAQDTSSYLFDKGEKDGLIRLIDEVEKIKGIRAARILYLYPTSASEALIKRIIASEIFINYFDMPLQHISDNMLKIMKRGANSTRLKEMLNLMKSAPNSFLRTGFIVGHPGESEADFEELCEFVKDFGFDRISVFAYSKEEDTAAFDMEQVPFKVINKRLKIIEKIVDEVIEKSFEKEVGQKRLVVCTGKSSEGEFFIAAKDLRWDREIDGEILINESECGNLEMGQIYECEILQNLDKKLLAKALRKVDANLEHHHHHH", "soluble on expression in E. coli": "soluble"}
{"sequence": "MSKQAFQKIYTKITNITKATCSLRATGVGNEELATIDGRLAQVVRIQGEDVTLQVFAGTEGIPTDAEVIFMGKAPSLKVGDQLAGRFFNAYGEPIDGGPQPEGKEVEIGGPSVNPVRRKQPSELIATGIAGIDLNNTLVTGQKIPFFADPDQPFNQVMAMVALRAESDKIILGGMGMTNDDYLFFKNTFSNAGALDRIVSFINTTEDPSVERILVPDMALAAAEYFAVEKHEKVLVLLTDMTNYADALAIVSNRMDQIPSKDSMPGSLYSDLAKIYEKAVQFPDGGSITIIAVTTLSGGDITHAVPDNTGYITEGQLYLRRDSNVGKVIVDPFRSLSRLKQLVIGKKTREDHPQVMNAAVRLFSDAANAQTKMENGFDLTDYDNRALEFANDYSRQLLAIDVNVNTTEMLDTAWELFSKHFKPAEVNIKQQLVDTYWKK", "soluble on expression in E. coli": "not soluble"}
{"sequence": "MSKRCASDRDDKDSEPVKKPRFSIANILDEVEDEEDVEVDVEDVDDVDLSSIPSKSPERSRGRPKIGLKMKEGNLPIECKLEGSELWAKFFDLGTEMIITKSGRRMFPTVKVSFTNVILDALYYIFLDVVPVDSKRYRYIYNKSAWLTAGKAEPVPKNRYYLHPDSPFTGDQLLKHVISFEKTKLTNNEVDKTGHLILNSMHKYQPRIHIVQRQKANPLDPNKVVMSEEKHCTYTFPETQFMAVTAYQNQLITKLKIEKNPFAKGFRDPTGRSPDEMERSPGDMMLSNFYHSSALQQAMFQQCLSKTLQLNPSIMMLYQNVFPTGNSLPAAPTVPGNPAEISIKSE", "soluble on expression in E. coli": "soluble"}
{"sequence": "MSKRQSSLMSFFTKTPKSEKPEEEVKEKSVEEPKSLKNDTPKISNDSEKKVLKRSNSKTVSSPVKTPRNASKRPKVVVCSSSEGEDDDGDEDFEMKEAEEHESSDESEADENASDCEVVESPESTPQSTPKRGGKKKISKPLLAENTPKSVKMAGKSKKVIPDGEAVSMAGVLDKMDKIMDGEGERKRIVEKTTGAKNKAVELEPAERFDHESFDFLKPDKIRDGFKRPMSDPEYDPKTLWVPPDFHQKQTPGHRQWWTMKSQHFDTILLFKVGKFYETYHMDAVEVVRALNIAFMRGSYAHAGFPEHAASKFADQLMNHGYKVARIEQTETPQMLEERNQKTKTKEKVVRREVCRVTSNGTRTYGVLDGVDLGSASSTLDPTAKHLLAIKEFHNPETGKSSYGVCMIDTTTAHIRIGQFEDDDYRSQLRTLLANVIVVQAIVERGSISSTTKSIINGILFSVPVEHLLPKKQFMTAEDVVRIVSNEDYYGSDASEWPEVLKGMLEDSSILPKPSTDWQLALSAFGAIFWYLRDSLIDVDMLSMRNVTIYNSNSMENDQKKEKIDWNGKNLILDGTALENLNIVPNGRDSHLTSLYYVINKCSTPFGRRLLRSWLLQPTCDPKKLEQRQKAIKWLVSPDASSFMTTATATLKKIPDLDRLLQKIHTIGLKYRSEKHPDSRAIFFDTIKTNQKKIAELLAAIDGFKLCNKLRKEYIKVQKEGEGCELLDELLGNEQEMEEVDENIYFFEKMFDRSTAMKDGKIVPNAGCDEEYDEALNRVKEALNELNDYKDSVAKKYSCSIKFVDSGKVKYLLEMPENTKVSSSFELKSRRKGFIRYSTPDSEQLVAALDAVEKEKSKLGDDATRRVFEQFGHKNPIWLETVKLVSSFDVLTSLALFAKSSPFEMCMPEFDFNATDPYLIVDKGVHPCLALQSRNEVTQTTSFIANSTTMGASEAAVMLLTGPNMGGKSTLMRQTAVLAILAHIGSMVPAFSMRLTPIDRIFTRIGANDRIMCGESTFFIELKETDIMLKNATKHSLLLVDELGRGTSTFDGTAIASAVLQKISDDLACRTFFSTHYHSICDSFTNHPNVRLAHMKCVVDKENNEDPTMEDVTFLYELESGICPKSYGFYAAKLAGIDHQVVRNAYLESNKFASNLIIDPKIRHLVECARDDNFDVGELKRMIEAI", "soluble on expression in E. coli": "not soluble"}
{"sequence": "MSKSENLYSAARELIPGGVNSPVRAFTGVGGTPLFIEKADGAYLYDVDGKAYIDYVGSWGPMVLGHNHPAIRNAVIEAAERGLSFGAPTEMEVKMAQLVTELVPTMDMVRMVNSGTEATMSAIRLARGFTGRDKIIKFEGCYHGHADCLLVKAGSGALTLGQPNSPGVPADFAKYTLTCTYNDLASVRAAFEQYPQEIACIIVEPVAGNMNCVPPLPEFLPGLRALCDEFGALLIIDEVMTGFRVALAGAQDYYGVVPDLTCLGKIIGGGMPVGAFGGRRDVMDALAPTGPVYQAGTLSGNPIAMAAGFACLNEVAQPGVHETLDELTTRLAEGLLEAAEEAGIPLVVNHVGGMFGIFFTDAESVTCYQDVMACDVERFKRFFHMMLDEGVYLAPSAFEAGFMSVAHSMEDINNTIDAARRVFAKL", "soluble on expression in E. coli": "soluble"}
{"sequence": "MSKVPVVGIVAALLPEMGIGFQGNLPWRLAKEMKYFREVTTLTNDNSKQNVVIMGRKTWESIPQKFRPLPKRINVVVSRSFDGELRKVEDGIYHSNSLRNCLTALQSSLANENKIERIYIIGGGEIYRQSMDLADHWLITKIMPLPETTIPQMDTFLQKQELEQRFYDNSDKLVDFLPSSIQLEGRLTSQEWNGELVKGLPVQEKGYQFYFTLYTKKLEHHHHHHHH", "soluble on expression in E. coli": "soluble"}
{"sequence": "MSLAAVILDYNGVIGLQPTTDQWLRLARTALWPEDDLPAFQNAFWTARTAYDAGHLSDLAYWATVLGHHPGARRLRGLRDADTDMWTSIDDHVIDVLHQAHESGLPLVLLSNAPRHLSDVLDRRPWRRLMTHAFYSARLQVCKPDPAAYQHAMNATGAADPDRVLFVDDRADNCHAARHLGLRTLHYTGHPTDLAAALQPPNEGHHHHHH", "soluble on expression in E. coli": "soluble"}
{"sequence": "MSLADAPDNLLGAYLRDRREKLDPAALGLPSTRRRTPGLRREEVAQRAHVSTAWYTWMEQGRGGAPSADVLDRLARALLLDDAEREHLFLLGVGHPPEVRYHASGGVTPRLQHVLDAMDASPAIVRTATWDVVAWNAAAAATLTDYATLPPAARNILRLIFVDPRVRDAQPNWDRVARFAVGAFRADIARGGATQAVQAFIDEMRATSAEFDALWRDHDIRSHDEGTKEIRHPHAGRITLEYSAFAVIGRADLSLVIFTPTTAADRASIRSLVAAREQARAAQAPAMEGHHHHHH", "soluble on expression in E. coli": "soluble"}
{"sequence": "MSLADEMGYVPDRRAQKLRQASSRLLGVVFELQQPFHGDLVEQIYAAATRRGYDVMLSAVAPSRAEKVAVQALMRERCEAAILLGTRFDTDELGALADRVPALVVARASGLPGVGAVRGDDVAGITLAVDHLTELGHRNIAHIDGADAPGGADRRAGFLAAMDRHGLSASATVVTGGTTETEGAEGMHTLLEMPTPPTAVVAFNDRCATGVLDLLVRSGRDVPADISVVGYDDSRLARIPHVQMTTISQDATHMAEAAVDGALAQISGDKAVDLVLAPHLVRRATTGPVAHREGHHHHHH", "soluble on expression in E. coli": "soluble"}
